According to patent US20230212319A1, “NOVEL ANTIGEN BINDING DOMAINS AND SYNTHETIC ANTIGEN RECEPTORS INCORPORATING THE SAME” (University of Southern California, priority 2020, published 2023):

tested on: target antigen-expressing cell line; experiment: Jurkat NFAT-GFP (JNG) assay: induction of NFAT promoter driven GFP expression; type: cell-based; settings: SAR-expressing JNG cells co-cultured with cell lines expressing their target antigen(s)
Description: Induction ofNFAT promoter driven GFP expression. […] Cellular supernatant is collected and assayed for the induction of cytokines (e.g., IL2).
Cellular supernatant is collected and assayed for the induction of cytokines (e.g., IL2).
JNG (Jurkat cells expressing EGFP under an NFAT promoter) were infected with lentiviral vectors encoding different single chain and multi-chain SARs by spinfection in the presence of 8 µg/ml of Polybrene® (Sigma, Catalog no. H9268). The Jurkat-NFAT-GFP cells are engineered in such a way that the IL-2 promoter, which carries NFAT binding sites, is cloned upstream of the GFP gene. These cells have been used to study signaling via TCR and CAR. The different SARs were stably expressed in Jurkat NFAT-GFP cells by lentiviral mediated gene transfer, followed by selection with puromycin or blasticidin. No drug selection was used in case the construct lacked an antibiotic resistance gene. The SAR-expressing Jurkat-NFAT-GFP cells were cocultured with the target cells at E:T ratio of approximately 1:2 for approximately 4 hours to 18 hours. When the interaction between SIRs and their target antigen results in activation of the NFAT pathway, GFP expression is induced. […] GFP expression was monitored by FACS analysis. The Jurkat-NFAT-GFP (parental) cells were used as control. The structure of different constructs can be determined based on their names. […] The sequence of the other constructs in the table can be similarly determined from their names and by referring to the different Tables of this disclosure that provide the names and SEQ ID NO of the different modules. Alternatively, the composition and modular architecture of the different SAR constructs can be determined from their sequences by bioinformatics tools, including using nucleic acid and amino acids homology searches. A SAR is considered positive in the assay in case the SAR expressing Jurkat-NFAT-GFP cells show greater % GFP positive cells when cultured with the target cell line as compared to parental Jurkat-NFAT-GFP cells. […] In general, the number +/-, +, 2+, 3+, 4+, 5+ refer to approximately 5%, 10%, 20%, 30%, 40% and 50% GFP positive cells. The % of GFP induction in the above assay is dependent not only the relative strength of the SAR but also, among other factors, on the relative level of expression of the SAR in the JNG cells and the relative level of expression of the target antigen in the target cell line. To control for the difference in gene transduction efficiency of the different SAR constructs, the experiment was conducted with JNG cells transduced with SAR constructs co-expressing a drug resistance gene (e.g., puromycin or PAC) followed by drug selection to generate a stable population of SAR-expressing cells. It is to be noted that the drug resistance gene (e.g., PAC) in the SAR constructs is optional and in vivo studies were conducted with SAR constructs lacking the PAC gene.

Molecule | GFP induction / activity in JNG assay
SEQ ID NO: 22009: two AABD attached in tandem to one of the two TCR constant chains (protein) MALPVTALLLPLALLLHAARPLEGKPIPNPLLGLDSTGSGEDLKNVFPPEVAVFEPSKAEIAHTQKATLVCLATGFYPDHVELSWWVNGKEVHSGVCTDPQPLKEQPALNDSRYCLSSRLRVSATFWQNPRNHFRCQVQFYGLSENDEWTQDRAKPVTQIVSAEAWGRADCGITSASYHQGVLSATILYEILLGKATLYAVLVSALVLMAMVKRKDSRGRAKRSGSGATNFSLLKQAGDVEENPGPTSTMDWIWRILFLVGAATGAHSQLQLQESGPGLVKPSETLSLTCTVSGGSVSSSSYYWGWIRQPPGKRLELIGSIYYGGSTYFNPSLKSRVTISVDTSKNQFSLKLSSVTAADTAVYYCAGGDTYGPVGQWPSDYRGQGTLVTVSSGGGGSGGGSFEVQLLESGGGLVQPGGSLRLSCAASGFIFSIYAMSWVRQAPGKGLEWVSGISGSGVNTYYADSVKGRFIISRDNSRNTVYLQMNSLRADDTAVYHCANGKGWDGNTWYEDYRGQGTLVTVSSTREQKLISEEDGSGIQNPDPAVYQLRDSKSSDKSVCLFTDFDSQTNVSQSKDSDVYITDKCVLDMRSMDFKSNSAVAWSNKSDFACANAFNNSIIPEDTFFPSSDVPCDVKLVEKSFETDTNLNFQNLSVIGFRILLLKVAGFNLLMTLRLWSSRAKRSGSGVKQTLNFDLLKLAGDVESNPGPSRGHMTEYKPTVRLATRDDVPRAVRTLAAAFADYPATRHTVDPDRHIERVTELQELFLTRVGLDIGKVWVADDGAAVAVWTTPESVEAGAVFAEIGPRMAELSGSRLAAQQQMEGLLAPHRPKEPAWFLATVGVSPDHQGKGLGSAVVLPGVEAAERAGVPAFLETSAPRNLPFYERLGFTVTADVEVPEGPRTWCMTRKPGA | only weak and inconsistent activity
SEQ ID NO: 22096: FHVH attached to TCRg-6MD via IgCL linker and second FHVH attached to TCRd-6MD via IgG1-CH1 linker (protein) MALPVTALLLPLALLLHAARPQLQLQESGPGLVKPSETLSLTCTVSGDSISSGDYYWGWIRQPPGKGLEWIGHIYYSGVTYYNPSLKSRVTISVDTSRNQFSLKLSSVTAADTAVYYCTREDSSNWRSRGQGTLVTVSSLEGQPKANPTVTLFPPSSEELQANKATLVCLISDFYPGAVTVAWKADGSPVKAGVETTKPSKQSNNKYAASSYLSLTPEQWKSHRSYSCQVTHEGSTVEKTVAPTECSPIKTDVITMDPKDNCSKDANDTLLLQLTNTSAYYMYLLLLLKSVVYFAIITCCLLRRTAFCCNGEKSRAKRSGSGATNFSLLKQAGDVEENPGPTSMDWIWRILFLVGAATGAHSFEVQLLESGGGLIQPGGSLRLSCAASGFTFSSHAMTWVRQAPGKGLEWVSAISGSGDYTHYADSVKGRFTISRDNSKNTVYLQMNSLRAEDSAVYYCAKDEDGGSLLGHRGQGTLVTVSSTRASTKGPSVFPLAPSSKSTSGGTAALGCLVKDYFPEPVTVSWNSGALTSGVHTFPAVLQSSGLYSLSSVVTVPSSSLGTQTYICNVNHKPSNTKVDKRVEPKSCEVKTDSTDHVKPKETENTKQPSKSCHKPKAIVHTEKVNMMSLTVLGLRMLFAKTVAVNFLLTAKLFFLRAKRSGSGVKQTLNFDLLKLAGDVESNPGPSRGHMTEYKPTVRLATRDDVPRAVRTLAAAFADYPATRHTVDPDRHIERVTELQELFLTRVGLDIGKVWVADDGAAVAVWTTPESVEAGAVFAEIGPRMAELSGSRLAAQQQMEGLLAPHRPKEPAWFLATVGVSPDHQGKGLGSAVVLPGVEAAERAGVPAFLETSAPRNLPFYERLGFTVTADVEVPEGPRTWCMTRKPGA | best activity
SEQ ID NO: 22098: FHVH attached to TCRg-6MD via IgCL linker and second FHVH attached to TCRd-6MD via IgG1-CH1 linker (protein) MALPVTALLLPLALLLHAARPQVQLVESGGGLVQPGGSLRLSCAASGFTFTNHAMSWVRQAPGKGLELVSSISGNGRTTYYADSVKGRFTISRDISKNTLDLQMNSLRAEDTAVYYCAKDGGETLVDSRGQGTLVTVSSLEGQPKANPTVTLFPPSSEELQANKATLVCLISDFYPGAVTVAWKADGSPVKAGVETTKPSKQSNNKYAASSYLSLTPEQWKSHRSYSCQVTHEGSTVEKTVAPTECSPIKTDVITMDPKDNCSKDANDTLLLQLTNTSAYYMYLLLLLKSVVYFAIITCCLLRRTAFCCNGEKSRAKRSGSGATNFSLLKQAGDVEENPGPTSMDWIWRILFLVGAATGAHSFEEVQLLESGGGLVQPGGSLRLSCAASGFTFSSYAMSWVRQAPGKGLEWVSSISGSGDYIYYADSVKGRFTISRDISKNTLYLQMNSLRAEDTAVYYCAKEGTGANSSLADYRGQGTLVTVSSTRASTKGPSVFPLAPSSKSTSGGTAALGCLVKDYFPEPVTVSWNSGALTSGVHTFPAVLQSSGLYSLSSVVTVPSSSLGTQTYICNVNHKPSNTKVDKRVEPKSCEVKTDSTDHVKPKETENTKQPSKSCHKPKAIVHTEKVNMMSLTVLGLRMLFAKTVAVNFLLTAKLFFLRAKRSGSGVKQTLNFDLLKLAGDVESNPGPSRGHMTEYKPTVRLATRDDVPRAVRTLAAAFADYPATRHTVDPDRHIERVTELQELFLTRVGLDIGKVWVADDGAAVAVWTTPESVEAGAVFAEIGPRMAELSGSRLAAQQQMEGLLAPHRPKEPAWFLATVGVSPDHQGKGLGSAVVLPGVEAAERAGVPAFLETSAPRNLPFYERLGFTVTADVEVPEGPRTWCMTRKPGA | best activity
SEQ ID NO: 22010: two AABD attached in tandem to one of the two TCR constant chains (protein) MALPVTALLLPLALLLHAARPLEGKPIPNPLLGLDSTGSGEDLKNVFPPEVAVFEPSKAEIAHTQKATLVCLATGFYPDHVELSWWVNGKEVHSGVCTDPQPLKEQPALNDSRYCLSSRLRVSATFWQNPRNHFRCQVQFYGLSENDEWTQDRAKPVTQIVSAEAWGRADCGITSASYHQGVLSATILYEILLGKATLYAVLVSALVLMAMVKRKDSRGRAKRSGSGATNFSLLKQAGDVEENPGPTSTMALPVTALLLPLALLLHAARPQLQLQESGPGLVKPSETLALTCNVSGGSISSSSYYWGWIRQPPGKRLEWIGSIYYSGSTYFNPSLKSRVTISVDTSKNQFSLKLSSVTAADTAVYYCAGGDYYGPVGQWPSDYRGQGTLVTVSSGSGGGGSGGGGSFEVQLLESGGGLVQPGGSLRLSCAASGFIFSSYAMSWVRQAPGKGQEWVSGVSGTGVNTYYADSVKGRFTISRDNSKNTLYLQMNSLRAEDTAVYYCASGKGWDSGSWYEDYRGQGTLVTVSSTREQKLISEEDGSGIQNPDPAVYQLRDSKSSDKSVCLFTDFDSQTNVSQSKDSDVYITDKCVLDMRSMDFKSNSAVAWSNKSDFACANAFNNSIIPEDTFFPSSDVPCDVKLVEKSFETDTNLNFQNLSVIGFRILLLKVAGFNLLMTLRLWSSRAKRSGSGVKQTLNFDLLKLAGDVESNPGPSRGHMTEYKPTVRLATRDDVPRAVRTLAAAFADYPATRHTVDPDRHIERVTELQELFLTRVGLDIGKVWVADDGAAVAVWTTPESVEAGAVFAEIGPRMAELSGSRLAAQQQMEGLLAPHRPKEPAWFLATVGVSPDHQGKGLGSAVVLPGVEAAERAGVPAFLETSAPRNLPFYERLGFTVTADVEVPEGPRTWCMTRKPGA | only weak and inconsistent activity
